Assay results: patent US20200262898A1

Key:
[1] = target: T1, CD151 (UniProt P48509); assay: flow cytometry on cells transfected with the target; signal over mock-transfected cells (background = 1.0)
T1 sequence (looked up): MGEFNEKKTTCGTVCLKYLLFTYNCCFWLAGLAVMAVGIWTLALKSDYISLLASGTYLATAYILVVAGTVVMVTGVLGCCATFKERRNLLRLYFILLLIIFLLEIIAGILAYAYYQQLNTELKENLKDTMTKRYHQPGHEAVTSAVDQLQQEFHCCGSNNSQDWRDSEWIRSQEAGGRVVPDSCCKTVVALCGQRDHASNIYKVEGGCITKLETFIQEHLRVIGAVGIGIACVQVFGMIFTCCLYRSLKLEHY

[2] = target: Fc-binding protein (the ZZ domain of ProA); assay: flow cytometry on cells expressing the Fc-binding ZZ domain on their surface; given as a measure of expression
[3] = target: CD63 (UniProt P08962); assay: flow cytometry on cells transfected with the target; signal over mock-transfected cells (background = 1.0)
[4] = target: T2, CD59 (UniProt P13987); assay: as above
T2 sequence (looked up): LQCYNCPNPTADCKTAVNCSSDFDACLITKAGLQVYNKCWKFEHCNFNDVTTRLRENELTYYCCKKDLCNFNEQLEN

[5] = target: T3, CD81 (UniProt P60033); assay: as above
T3 sequence (looked up): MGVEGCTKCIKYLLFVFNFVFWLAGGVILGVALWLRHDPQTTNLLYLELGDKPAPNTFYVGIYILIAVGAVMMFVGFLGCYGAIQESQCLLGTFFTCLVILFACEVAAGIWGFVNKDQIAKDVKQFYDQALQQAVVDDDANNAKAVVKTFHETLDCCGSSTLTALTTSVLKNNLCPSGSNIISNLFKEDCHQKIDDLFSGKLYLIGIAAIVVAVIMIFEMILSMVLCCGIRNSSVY

[6] = target: T4, IGSF8 (UniProt Q969P0); assay: as above
T4 sequence (looked up): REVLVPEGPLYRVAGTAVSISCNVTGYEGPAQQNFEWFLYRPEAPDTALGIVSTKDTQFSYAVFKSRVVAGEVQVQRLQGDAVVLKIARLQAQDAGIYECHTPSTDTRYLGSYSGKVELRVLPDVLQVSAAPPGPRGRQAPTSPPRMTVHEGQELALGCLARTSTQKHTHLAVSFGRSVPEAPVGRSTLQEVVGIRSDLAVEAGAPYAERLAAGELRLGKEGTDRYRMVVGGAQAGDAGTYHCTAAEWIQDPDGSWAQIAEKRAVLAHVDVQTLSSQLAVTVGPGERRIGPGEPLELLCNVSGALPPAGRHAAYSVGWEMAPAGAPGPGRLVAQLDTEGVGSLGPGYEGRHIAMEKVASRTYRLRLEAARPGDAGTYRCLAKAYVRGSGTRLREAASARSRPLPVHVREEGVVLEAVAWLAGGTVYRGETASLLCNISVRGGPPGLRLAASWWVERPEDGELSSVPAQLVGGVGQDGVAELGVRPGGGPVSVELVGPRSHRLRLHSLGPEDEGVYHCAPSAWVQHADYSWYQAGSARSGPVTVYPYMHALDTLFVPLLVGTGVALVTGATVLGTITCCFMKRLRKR

[7] = target: CD147 (UniProt P35613); assay: as above

B1: Antibody of common light chain F10 (F10chicken) paired with the heavy chain against CD151 (antibody, V domains shown)
VH: AVTLDESGGGLQMPGGALSLVCKASGFTFSSYGMEWVRQAPGKGLEWVAGISSGGGSTDYGTAVKGRATISRDNGQSTVRLQLNNLRAEDTGTYFCAKSAYGGTWDGDDIDAWGHGTEVIVSS
VL: ALTQPSSVSANPGETVKITCSGGYNGHYGWYQQKSPGSAPVTVIYSNNQRPSNIPSRFSGSTSGSTSTLTITGVRAEDEAVYFCGGYDSSAGIFGAGTTLTVL
With B1 the S:B Binding [1] was 25.1 S:B and the S:B Expression [2] was 13.7 S:B.

B2: Antibody of common light chain F10 (F10chicken) paired with the heavy chain against CD63 (antibody, V domains shown)
VH: AVTLDESGGGLQTPGGALSLVCKASGFTFSDRGMHWVRQAPGKGLEWVAGIRSTGSFTLYGAAVKGRATISRDDGQSTLRLQLNNLRAEDTGTYYCAKSAGGYGCGRGWCGVDDIDAWGHGTEVIVSS
VL: B1 VL
B2 was tested, and the S:B Binding [3] was 5.2 S:B and the S:B Expression [2] was 15.5 S:B.

B3: Antibody of common light chain F10 (F10chicken) paired with the heavy chain against CD59 (antibody, V domains shown)
VH: AVTLDESGGGLQTPGGGLSLVCKASGFDFSSFDMVWVRQAPGKGLEWVAGISYSNTDTSYAPAVDGRATISRDNGQSTVRLQLNNLRAEDSATYYCAKSAGGCCYRADNIDAWGHGTEVIVSS
VL: B1 VL
With B3 the S:B Binding [4] was 14.6 S:B and the S:B Expression [2] was 12.2 S:B.

B4: Antibody of common light chain F10 (F10chicken) paired with the heavy chain against CD81 (antibody, V domains shown)
VH: AVTLDESGGGLQTPGGALSLVCKASGFSIGDYNMGWVRQAPGKGLEWVAGIDAGGGTWRATAVKGRATISRDNGQSTVRLQLNNLRAEDTATYFCAKSTDSSANCCANSIDAWGHGTEVIVSS
VL: B1 VL
With B4 the S:B Binding [5] was 0.4 S:B and the S:B Expression [2] was 11.1 S:B.

B5: Antibody of common light chain F10 (F10chicken) paired with the heavy chain against IGSF8 (antibody, V domains shown)
VH: AVTLDESGGGLQTPGGGLSLVCKASGFSISSYEMQWVRQAPGKGLEWVAGIDDDGSSRAYAPAVKGRATISRDNGQSTVRLQLNNLRAEDTGTYYCAKTIYAATLNAGEIDAWGHGTEVIVSS
VL: B1 VL
B5 was tested, and the S:B Binding [6] was 1.6 S:B and the S:B Expression [2] was 11.9 S:B.

B6: Antibody of common light chain C11 (C11chicken) paired with the heavy chain against CD147 (antibody, V domains shown)
VH: AVTLDESGGGLQTPGGGLSLVCKASGFTFSSYAMYWVRQAPGKGLQWVAGISRDGSSGRYGAAVKGRATISRDNGQSTVRLQLNNLRAEDTATYFCAKSGYGDYTSADEIDAWGHGTEVIVSS
VL: ALTQPSSVSANPGETVKITCSGGGSWYGSYYYGWYQQKSPGSAPVTLIYNNDKRPSDIPSRFSGSESGSTATLTITGVQAEDEAVYFCGGYDSTTTDMFGAGTTLTVL
In the case of B6, the S:B Binding [7] is reported as 1.4 S:B.

B7: Antibody of common light chain F10 (F10chicken) paired with the heavy chain against CD147 (antibody, V domains shown)
VH: B6 VH
VL: B1 VL
B7 was tested, and the S:B Binding [7] was 5.7 S:B and the S:B Expression [2] was 15.5 S:B.

B8: Antibody of common light chain B9 (B9chicken) paired with the heavy chain against CD147 (antibody, V domains shown)
VH: B6 VH
VL: ALTQPSSVSANPGETVKITCSGGGSSNYYGWYQQKSPGSAPVTLIYGTNKRPSDIPSRFSGSKSGSTGTLTITGVQADDEAVYFCGSADSSTNAGIFGAGTTLTVL
B8 was tested, and the S:B Binding [7] was 10.3 S:B.
